From the nanobody polyreactivity screen of Harvey et al. (2022)

Test: yeast display, Sf9 membrane polyspecificity reagent, FACS + sequencing; frameworks hold sequencing errors
Procedure, shortened: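 A nanobody's polyreactivity label depends on the gate it was sorted from. Yeast display cells were stained with 10% biotinylated, detergent-solubilized Sf9 membrane reagent for 1 hour at 4 °C, enriched on streptavidin microbeads and sorted by FACS. The low and high (top ~1%) gates were set on anti-HA fluorescence for expression and streptavidin fluorescence for reagent binding.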

| Sequence | polyreactivity (PSR sort gate) |
| --- | --- |
| QVQLVESGGGLVQAGGSLRLSCAASGSILVYYAMGWYRQAPGKEREFVAAITRSGGSTYYADSVKGRFTISRDNAKNTVYLQMNSLKPEDTAVYYCNARDVVWKRFTRYDFWGQGTQVTVSS | high polyreactivity |
| QVQLVESGGGLVQAGGSLRLSCAASGSILWHNAKGWYRQAPGKEREFVAAISARGTRTYYADSVKGRFTISRDNAKNSVYLQMNSLKPEDTAVYYCAARYWDDRARAEDYWGQGTQVTVSS | high polyreactivity |
| QVQLVESGGGLVQAGGSLRLSCAASGSILWHNAMGCYRQAPGKEREFVAAISARGTRTYYADSVKGRFTISRDNAKITVYLQMNSLKPEDTAVDYCAARYWDDRARAEDYWGQGTQVTVSS | high polyreactivity |
| QVQLVESGGGLVQAGGSLRLSCAASGSILYANAMGWYRQAPGKERELVAAISARGTSTYYADSVKGRFTISRDNAKNTVYLQMNSLKPEDTAVYYCATGRKNAAQRWGYYYWGQGTQVTVSS | high polyreactivity |
| QVQLVESGGGLVQAGGSLRLSCAASGSILYFNAMGLYRQAPGKERELVATITSGGSTNYADSVKWRFTISRDNAKNTVYLQMNSQKPEDTAVYYSAADYSTRKADYWVQGTQVTVSS | low polyreactivity |
| QVQLVESGGGLVQAGGSLRLSCAASGSILYGNDMGWYRQAPGKERELVATITSSDSTYYADSVKGRFTISRDNAKNTVYLQMNSLKPEDTAVYYCAADSSEWLLKDDYWGQGTQVTVSS | low polyreactivity |
| QVQLVESGGGLVQAGGSLRLSCAASGSILYHYAMGWYRQAPGKERELVAGISWRGGSTYYADSVKGRFTISRDNAMNTVYLQMNSLKPEDTAVYYCATLRYPYRFYAFQYYYWGQGTQVTVSS | low polyreactivity |
| QVQLVESGGGLVQAGGSLRLSCAASGSILYPYAMGWYRQAPGKERELVAAIRSRGGSTYYADSVKGRFTISRDNAKNTGYLQMNSLKPEDTAVYYCAAGSTRARFDYWGQGTQVTVSS | high polyreactivity |
| QVQLVESGGGLVQAGGSLRLSCAASGSILYRNAMGWYRQAPGKERELVAAITYSGARTYYADSVKGRFTISRDNAKNSVYLQMNSLKPEDTAVYYCAATAAGYWYSAYDYWGQGTQVTVSS | low polyreactivity |
| QVQLVESGGGLVQAGGSLRLSCAASGSILYYNAMGWYRQAHGKERELVAAISTRGGSTYYADSVKGRFTISRDNAKNTVYLQMNSLKPEDTAVYYCAADHNVIWGYYYWGQGTQVTVSS | high polyreactivity |
| QVQLVESGGGLVQAGGSLRLSCAASGSILYYNAMGWYRQAPGKERELVAAITSGGSTYADSVKGRFTISRDNAKNTFYLQMNCLKPEDTAVYYCAADLYWYLSDYGTTLEHDYWGQGTQVTVSS | low polyreactivity |
| QVQLVESGGGLVQAGGSLRLSCAASGSILYYNAMGWYRQAPGKERELVAGIRSSGGSTYYADSVKGRFTISRDTAKNTVYLQMNSLKPEDTAVYYCAKRTYWRRGWGFDYWGQGTQVTVSS | high polyreactivity |
| QVQLVESGGGLVQAGGSLRLSCAASGSILYYYAMGWYRQAPGKERELVAAISSSGGRTYYADSVKGRFTISRDNAKNTVYLQMNSLKPEDTAVYYCAATNRRQPYKDREDYWGQGTQVTVSS | high polyreactivity |
| QVQLVESGGGLVQAGGSLRLSCAASGSINVRYAMGWYRQAPGKERELVAAISWSGGRTYYADSVKGRFTISRDNAKNTVYLQMNSLKPEDTAVYYCAADSSVRYRDTEDYWGQGTQVTVSS | low polyreactivity |
| QVQLVESGGGLVQAGGSLRLSCAASGSIRHNTMGWYRQAPGKEREFVASISKRGGSTYYADSVKGRFTISRDNAKNTVYLQMNSLKPEYTAVYYCNAGAVTFVGRDYWGQGTQVTVSS | high polyreactivity |
| QVQLVESGGGLVQAGGSLRLSCAASGSIRSYAMGWYRQAPGKERELVAAITRSGGSTYYADSVKGLFTISRDNAKNTVYLQMNSLKPEDTAVYYCAARYTYSYPLFGSWGQGTQVTVSS | high polyreactivity |
| QVQLVESGGGLVQAGGSLRLSCAASGSIRSYAMGWYRQAPGKERELVAAITRSGGSTYYADSVKGRFTISRDNAKNTVYLQMNSLKPEDTADYYCGARSTYSYPLFGSWGQGTQVTVSS | high polyreactivity |
| QVQLVESGGGLVQAGGSLRLSCAASGSIRYYAMGWYRQAPGKERELVAAISSRGTNTYYADSVKGRFTISRDNAKNTVYLQMNSLKPEDTAVYYCNAVVGLGYNYWGQGTQVTVSS | high polyreactivity |
| QVQLVESGGGLVQAGGSLRLSCAASGSISAGNAMGWYRQAPGKERDLVAAISGSGGSTYYADSVKGRFTISRYNAKNTVYLQMNRLKPEDTAVYYCAARGGYRLRYIPYVRYDYWGQGTQVTVSS | high polyreactivity |
| QVQLVESGGGLVQAGGSLRLSCAASGSISASYAMGWYRQAPGKERELVAAITSGGSTYYADSVKGRFTISRDNAKNTVYLQMNSLKPEDTAVYYCAKRPKRTYYPHIGYDYWGQGTQVTVSS | low polyreactivity |
| QVQLVESGGGLVQAGGSLRLSCAASGSISAVNAMGWYRQAPGKERELVAAITYSGGSTYYADSVKGRFTISRDHAQNTVYLQINSLKPEDTAVYNCAARARYPNWTYYYWGQGTQVTVSS | high polyreactivity |
| QVQLVESGGGLVQAGGSLRLSCAASGSISDVYTMGWYRQAPGKERELVAANSFSGDSTYYADSVKGRFTISRDNAKNTVYLQMNSLKPEDTAVYYCATDVGYVYGYYYWGQGTQVTVSS | low polyreactivity |

| Sequence | polyreactivity (PSR sort gate) |
| --- | --- |
| QVQLVESGGGLVQAGGSLRLSCAASGSISFLYTMGWYRQAPGKERELVAAITGSTASTYYADSVKGRFTISRDNAKNTVYLQMNSLKPEDTAVYYCNADSYPGLNPDFDYWGQGTQVTVSS | low polyreactivity |
| QVQLVESGGGLVQAGGSLRLSCAASGSISFRYAMGWYRQAPGKDRELVAAITSGGGTTYYADSVKGRFTISRDNAKNTVYLQMNSMKPEDTAVYYCAKPRARQAFDYWGQGTQVTVSS | high polyreactivity |
| QVQLVESGGGLVQAGGSLRLSCAASGSISFSNAMGWYRQAPGKERELVASITSGGSTKYADSVKGRFTISRDNAKNTVFLQMNSLKPEDTAVFYCAADGYDYWGQGTQVTVSS | low polyreactivity |
| QVQLVESGGGLVQAGGSLRLSCAASGSISGYNAMGWYRQAPGKERELVAAISWAGGITRYADSVKGRFTISRDNAKNPVYLQMNSLKPEDTAVYYCAADQTYERHWVYYWGQGTQVTVSS | low polyreactivity |
| QVQLVESGGGLVQAGGSLRLSCAASGSISGYNAMGWYRQAPGKESELVAVITTDGSTNYADSEKGRFTISRDNAKNTVYLQMNSLKPEDTAVYYCNTDDGWRLLWEYDYWGQGTQVTVSS | low polyreactivity |
| QVQLVESGGGLVQAGGSLRLSCAASGSISGYYAMGWYRQAPGKERDLVASIRYTGARTYYADSVKGRFTISRDNAKNTVYVQMNSLKPEDTAVYYCAADVKRERVWGGDYWGLGTQVTVSS | low polyreactivity |
| QVQLVESGGGLVQAGGSLRLSCAASGSISGYYAMGWYRQAPGKERELVASIRYTGARTYYADSVKGRFTISRDNAKNTVYLQMNSLKPEDTAVYYGAADVKRDRVWGGDYWGQGTQVTVSS | low polyreactivity |
| QVQLVESGGGLVQAGGSLRLSCAASGSISHLYTMGCYRQSPGKERELVAAIRYSGGRTDYADSVKGRFTISRDNAKNTVYLQMNSLKPEDTAVYYCAAGRSFRGSYWYEYWGQGTQVTVSS | high polyreactivity |
| QVQLVESGGGLVQAGGSLRLSCAASGSISNRYAMGWYRQAPGKERELVAAISTGGGTTYYADSVKGRFTISRDNAKNTVYLQMNSLKPEDTAVYYCAADDWRYYRELDYWGQGTQVTVSS | low polyreactivity |
| QVQLVESGGGLVQAGGSLRLSCAASGSISSGYTMGWYRQAPGKERELVASIRSGGSTYYADSVKGRFTISRDNAKNTVYLQMNSLKPEDTAVYYCAARFFYRYSWGRTRGYDYWGQGTQVTVSS | high polyreactivity |
| QVQLVESGGGLVQAGGSLRLSCAASGSISSVNVMGWYRQAPGKERELVAAISSGTSTHYADSVKGRFTISRDNAKNTVYLQMNSLKPEVTAVYYCNKTSFLVKLDYWGQGTQVTVSS | low polyreactivity |
| QVQLVESGGGLVQAGGSLRLSCAASGSISTNYAMGWSRQAPGKERELVAAISSSGGSTYYADSVKGRFTISRDNAKNTVYLQMNSLKPEDTAVYYCRYKFGYWGQGTQVTVSS | high polyreactivity |
| QVQLVESGGGLVQAGGSLRLSCAASGSISVRNVMGWYRQAPGKERELVATIRRPGGSTSYADSVKGRFTISRDNAKNTVYLQMNSLKPEDTAVYYCAAVGYTTYRRYDYWGQGTQVTVSS | low polyreactivity |
| QVQLVESGGGLVQAGGSLRLSCAASGSISVVNMGWYRQAPGKERELVASITSSGSTTYADSVKGRFTISRDNAKNTVYLQMNSLKPEDTAVYYCAAVRCRSQPYWYHSMDHWGQGTQVTVSS | low polyreactivity |
| QVQLVESGGGLVQAGGSLRLSCAASGSISVWYVMGWYRPAPGTERELVAAITRSGGSTFYADSVKGRFTISRDNAKNTVYLQMNSLKPEDTAVYYCAADGGVAWGYGYWGQGTQVTVSS | low polyreactivity |
| QVQLVESGGGLVQAGGSLRLSCAASGSISVYNAMGWYRQAPGKERELVAAISWSGGRTSYADSVKGRFTISRDNAKNTVYLQMNSLKPEDTAVYYCAADELTVLWDEDYWGQGTQVTVSS | low polyreactivity |
| QVQLVESGGGLVQAGGSLRLSCAASGSISYPYDMGWYRQAPGKDRELVAAISGSGGRTYYADSLKGRFTLSRDTAKNTVYLQMNSLKPEVTAVYYCAAERGAYRGVTFTYGYWGQGTQVTVSS | high polyreactivity |
| QVQLVESGGGLVQAGGSLRLSCAASGSISYQNAMGWYRQAPGKERELVAAISGDGDSTYYADSVKGRFTISRDNAKNTVYLQMNSLKPEDTAVYYCAAEPNVYFSVFVLFPYDYWGQGTQVTVSS | low polyreactivity |
| QVQLVESGGGLVQAGGSLRLSCAASGSISYTYAMGWYRQATGKERELVASISYSEGITYYADSVKGRFTISRDNAKNTVYLQMNSLKPEDTAVYYCAVEGVYPYYDQSEYDYWGQGTQVTVSS | high polyreactivity |
| QVQLVESGGGLVQAGGSLRLSCAASGSISYVYAMGWYRQAPGKERELFAAISYSDGSTYYADSVKGRFTISRDNAKNTVYLQMISLKPEDTAVYYCAADAVYPFPYYWEYYYWGQGTQVTVSS | high polyreactivity |
| QVQLVESGGGLVQAGGSLRLSCAASGSITYLYAMGSYRQAPGKERELLASITWSGGSTYYADSVKGRFTISRDNAKNTVYLQMNSLKPEDTAVYDCAALYQPFPWTWDGYYWGQGTQVTVSS | low polyreactivity |
